Experimental data from US20260152571A1.

Columns and labels:
[1] = molecular target: HLA-A2 on T2 cells without added peptide (human); test: flow cytometry, T2 cells without peptide, antibody 10 µg/mL
[2] = molecular target: PIGQ/HLA complex on PIGQ-pulsed T2 cells (human); test: flow cytometry, T2 cells pulsed with 25 µM PIGQ peptide, antibody 10 µg/mL
[3] = molecular target: MED13L/HLA complex on MED13L-pulsed T2 cells (human); test: flow cytometry, T2 cells pulsed with 25 µM MED13L peptide, antibody 10 µg/mL
[4] = molecular target: WT1RMF/HLA-A2 complex on cells (human); test: flow cytometry, T2 cells pulsed with 25 µM WT1RMF, antibody 10 µg/mL

Percentage of Positive Cells (%) [1]: 5.43%
Percentage of Positive Cells (%) [2]: 4.78%
Percentage of Positive Cells (%) [3]: 5.38%
Percentage of Positive Cells (%) [4]: 4.93%
Substance: ISO (antibody)
